Measurements as given in US20180291360.
Like-named read-outs stand apart in the source and are kept apart here.

T1: peptide TPAAAR
T1 chain: TPAAAR

T2: peptide WHWLQLKPGQPMY
T2 chain: WHWLQLKPGQPMY

T3: peptide KPGQPMY
T3 chain: KPGQPMY

B1: TRI063, leucine aminopeptidase 2 from Aspergillus oryzae RIB40 (NCBI Reference Sequence XP_001819545.1) (protein)
chain: RALVSPDEFPEDIQLEDLLEGSQQLEDFAYAYPERNRVFGGKAHDDTVNYLYEELKKTGYYDVYKQPQVHLWSNADQTLKVGDEEIEAKTMTYSPSVEVTADVAVVKNLGCSEADYPSDVEGKVALIKRGECPFGDKSVLAAKAKAAASIVYNNVAGSMAGTLGAAQSDKGPYSAIVGISLEDGQKLIKLAEAGSVSVDLWVDSKQENRTTYNVVAQTKGGDPNNVVALGGHTDSVEAGPGINDDGSGIISNLVIAKALTQYSVKNAVRFLFWTAEEFGLLGSNYYVSHLNATELNKIRLYLNFDMIASPNYALMIYDGDGSAFNQSGPAGSAQIEKLFEDYYDSIDLPHIPTQFDGRSDYEAFILNGIPSGGLFTGAEGIMSEENASRWGGQAGVAYDANYHAAGDNMTNLNHEAFLINSKATAFAVATYANDLSSIPKRNTTSSLHRRARTMRPFGKRAPKTHAHVSGSGCWHSQVEA
B2: TRI032, PepN 2 (aminopeptidase type 2) from Myceliophthora thermophila ATCC 42464 (protein)
chain: GGHGGSSGLGCDSQRPLVSSEKLQSLIKKEDLLAGSQELQDIATAHGGHRAFGSSGHNATVDFLYYTLKALDYYNVTKQPFKEIFSSGTGSLTVDGEDIEAETLTYTPSGSATDKPVVVVANVGCDAADYPAEVAGNIALIKRGTCTFSQKSVNAKAAGAVAAIIYNNAEGKLSGTLGQPFLDYAPVLGITLEAGEALLAKLAGGPVTATLQIDALVEERVTYNVIAETKEGDHSNVLVLGGHTDSVPAGPGINDDGSGTIGMLTVAKALTKFRVKNAVRFAFWSAEEYGLLGSYAYIKSINSSAAELSKIRAYLNFDMIASPNYIYGIYDGDGNAFNLTGPAGSDVIERNFENFFKRKHTPSVPTEFSGRSDYAAFIENGIPSGGLFTGAEVLKTEREAELFGGRAGVAYDVNYHQAGDTVDNLALDAFLLNTKAIADSVATYALSFDGLPRVDGKKRRWDAHRARMLKRSAGSHGHAHLHSGPCGGGASI
B3: TRI035, PepN 2 (aminopeptidase type 2) from Aspergillus clavatus NRRL 1 (protein)
chain: NAPGGPGGHGRKLPVNPKTFPNEIRLKDLLHGSQKLEDFAYAYPERNRVFGGQAHLDTVNYLYRELKKTGYYDVYKQPQVHQWTRADQSLTLGGDSIQASTMTYSPSVNVTAPLSLVSKLGCAEGDYSADVKGKIALVSRGECSFAQKSVLSAKAGAVATIVYNNVDGSLAGTLGGATSELGPYSPIIGITLAAGQDLVARLQAAPTEVSLWIDSKVENRTTYNVIAQTKGGDPNNVVALGGHTDSVENGPGINDDGSGVISNLVVAKALTRYSVKNAVRFCFWTAEEFGLLGSNYYVDNLSPAELAKIRLYLNFDMIASPNYALMIYDGDGSAFNLTGPPGSAQIESLFENYYKSIKQGFVPTAFDGRSDYEGFILKGIPAGGVFTGAESLKTEEQARLFGGQAGVALDANYHAKGDNMTNLNHKAFLINSRATAFAVATYANNLSSIPPRNATVVKRESMKWTKREEPHTHGADTGCFASRVKE
B4: TRI031, PepN 2 (aminopeptidase type 2) from Neosartorya fischeri NRRL 181 (protein)
chain: NGPGWDWKPPVHPKVLPQMIHLWDLMHGAQKLEDFAYAYPERNRVFGGPAHEDTVNYLYRELKKTGYYDVYKQPQVHQWTRADQALTVDGKSYVATTMTYSPSVNVTAPLAVVNNLGCVESDYPADLKGKIALVSRGECPFATKSVLSAKAGAAAALVYNNIEGSMAGTLGGPTSELGPYAPIAGISLADGQALIQMIQAGTVTANLWIDSKVENRTTYNVIAQTKGGDPNNVVALGGHTDSVEAGPGINDDGSGIISNLVVAKALTRFSVKNAVRFCFWTAEEFGLLGSSYYVNSLNATEKAKIRLYLNFDMIASPNYALMIYDGDGSAFNLTGPAGSAQIERLFEDYYKSIRKPFVPTEFNGRSDYEAFILNGIPAGGIFTGAEAIKTEEQAKLFGGQAGVALDANYHAKGDNMTNLNREAFLINSKATAFAVATYANSLDSIPSRNMSTVVKRSQLEQAKKSTPHTHTGGTGCYKDRVEQ

Experiments:
peptide TPAAAR [1] = system: peptide TPAAAR
peptide TPAAAR [2] = target: T1, peptide TPAAAR
peptide WHWLQLKPGQPMY = target: T2, peptide WHWLQLKPGQPMY
peptide KPGQPMY = target: T3, peptide KPGQPMY

Molecule	hydrolysis of the peptide, LC-MS label free quantification (peptide TPAAAR [1])	hydrolysis of the peptide, LC-MS label free quantification (peptide TPAAAR [2])	hydrolysis of the peptide, LC-MS label free quantification (peptide WHWLQLKPGQPMY)	hydrolysis of the peptide (X-Pro bond), LC-MS label free quantification (peptide KPGQPMY)
COROLASE LAP (fungal exo-peptidase, AB Enzymes)	show no hydrolysis of TPAAAR within 12 hr			
B1		show no hydrolysis of TPAAAR within 12 hr	we also find that their enzyme cleaves the peptide down to QPMY (FIG. 7)	
B2		can hydrolyze the peptide TPAAAR over time to less than half the concentration within 2 hr incubation		
B3		can hydrolyze the peptide TPAAAR over time to less than half the concentration within 2 hr incubation	TRI031 and TRI035 can hydrolyze the peptide WHWLQLKPGQPMY (FIG. 5) to KPGQPMY (FIG. 6) and further down to QPMY (FIG. 7)	to KPGQPMY (FIG. 6) and further down to QPMY (FIG. 7)
B4			TRI031 and TRI035 can hydrolyze the peptide WHWLQLKPGQPMY (FIG. 5) to KPGQPMY (FIG. 6) and further down to QPMY (FIG. 7)	to KPGQPMY (FIG. 6) and further down to QPMY (FIG. 7)
